Reference: the supplement of paper PMC12636428

Tested on: Saccharomyces cerevisiae
Experiment: transcriptional activation domain activity (GFP:mCherry ratio, weighted mean of sorted bins, harmonized to initial dataset scale) (arbitrary fluorescence ratio units); higher = stronger transcriptional activation
Conditions: beta-estradiol 1 µM; induction time 4 h
Method in brief: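 Yeast diploids with a GFP reporter received barcoded protein tiles, fused to an estradiol-inducible synthetic transcription factor, at the URA3 locus. Cultures were diluted 1:5 into SC holding 1 uM beta-estradiol, incubated 4 hours at 30 °C, sorted into 8 bins on GFP:mCherry ratio, and sequenced for barcodes, with tiles under 50 reads discarded. Activation activity values come from the read-weighted mean of bin median fluorescence, averaged across barcodes and linearly placed on the initial dataset scale.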

First: MPRPFSFFFSFLLFLLFFFSIFFIFLFLLFFFLVKGIWTTYKYVLVTCLYLVI
Second: MPRPKRPGAPEAKTRSRKGCWPCKARKVKCGEEKPACSNCSRQGVICDYSIRL
The “transcriptional activation domain activity” value of the first is lower: 32700 for the first, 34600 for the second.

Going from “MPSAATRPCVQCAAAASRYNCPQCRASTCSAPCSKAHKLRAHGSDAAAGPSSA” to “MPSAYHLGITPFGVHQWDINLRTLQRYLFFLYCCWIIWGILVLLLKVIILLQY”, the “transcriptional activation domain activity” value falls from 47500 to 39700.

Compared with “MPSCFCFIPEFTALSLPPLCSLFWFRLCTWLFLRMLCTRIYLFCSWFFCLTYF”, “MPSFFLFFLFFFLLSQCFLVLCHVCIGLVSFSSLSFFFFFPYSTFFSPLPFFL” is higher in “transcriptional activation domain activity” value: 56400 for the first, 61700 for the second.

Compared with “MPSFTFAWPDRAYFYSLLVVSLLSAKFLHLFSHLTALPIFLFLLYFPTFVFLD”, “MPSFTLAWPDRAYFYSLLVVSLLSAKFLHLFSHLTALPIFLFLLYFPTFVFLD” is higher in “transcriptional activation domain activity” value: 71900 for the first, 76700 for the second.

First: MPSITLAWPDRAYFYSLLVVSLLSSKLLHVFSHLTAIPIFLFLLYFPTFLFLD
Second: MPSITLTWPDRAYFYSLLVVSLLSAKLLHVFSHLTTIPIFLFLLYFPTFFFLD
The “transcriptional activation domain activity” value of the first is higher: 72500 for the first, 57300 for the second.

Compared with “MPTDHASDTPSLGESSNQGAHKGYGRACLQCRQKKRKCRPSETKPDLCLLCEK”, “MPTITLAWPERAYFYSLLVVSLLSAKLLHVFSHLTTIPIFLFLLYFPTFLFLD” is higher in “transcriptional activation domain activity” value: 40000 for the first, 59600 for the second.

Going from “MPTLLVSLCSFFPWPLFLSFLFLVFHTFASLVIVQKSHFILSYILIMHLSFFA” to “MPTNFTKEGRTCTVTYKIQVHMIRPAVFIDFITLWIRQTFGMIVMVVTAELPR”, the “transcriptional activation domain activity” value rises from 46300 to 47800.

First: MPTPGLDHSLQMMPDGNSGVNPSLLGDFDLFSASAYQAELDYLSFPFMDSFLA
Second: MPTPSFFCFFLLFLSPMLNMRGDTFTAPLIFSFFVFFFFFFMLSLHFLLVFFS
The “transcriptional activation domain activity” value of the first is higher: 140000 for the first, 46400 for the second.

Compared with “MPTTSHSLFLRYVFLFVAWLVFREVFALMGFFLLLIFLIPKIVKVPFFFFFFL”, “MPTVRCLLPFVLFTGLLYRILLSLSFLLVLPFLILLFSSPSLLSCFLLLAYIL” is higher in “transcriptional activation domain activity” value: 55000 for the first, 57000 for the second.

First: MPVGIVLQLIAAVQYHLYTAMLFTWTDYKTIFFPYLLKCCLWVWVHQLLCNVS
Second: MPVLFVFFSSFHSFIFLFFFYYGWLKVVIQVVMRLWGYKSLVGFFFLHGLLVC
The “transcriptional activation domain activity” value of the first is lower: 56900 for the first, 66500 for the second.

Compared with “MPVLPKSSSTKRAGAPKAKGAVRAKSGCYTCRIRRKKCDENPDDAGQCQTCVR”, “MPVLPYFFAKFIIDIPRIVIGGSMFSLALVVFFPYQQPFVRMYGMVIILYFYS” is higher in “transcriptional activation domain activity” value: 36600 for the first, 51200 for the second.

First: MPVVKLMAEPFLFLFLFYLSVLALAFFYFFYFFYFFFLKILPGMMVFSSLGCF
Second: MPWFIVCPLIFCSFGPFDALLSVLFFFYEHHFLLVIFPLTLIMQFSFLLSYFS
The “transcriptional activation domain activity” value of the first is higher: 55500 for the first, 53100 for the second.

Compared with “MPWGGWGYIFDVTRPFFFCFISCLFLFYICLLGFLVGFFCFSFFFDLFIFFMT”, “MPYKKGHFVWILVYAIAVQSGNVMKKRVGVVTLVLKMPSRKILPPWSTLVCKT” is higher in “transcriptional activation domain activity” value: 24600 for the first, 47300 for the second.

Compared with “MQADNLPFMCVCPYFLSTYSSSLSLVFPLFFFLCLFLLFPFFAFLLLLSLFSC”, “MQAGIHNVLFHFRNKWWIQIIGSGLPYFVLLAGRGLMCIFLFLIFRLRRCLCV” is higher in “transcriptional activation domain activity” value: 44500 for the first, 67300 for the second.

Compared with “MQASFIFLSFTSGVIHTYILYLDLVAYFLLSLGGFVLIIGFWRWGFFFSFFPF”, “MQCIFVHILLVFIINTFYLVHRLFSSSFLSSFTLFCFLYTHYSFLFFRLIHIS” is higher in “transcriptional activation domain activity” value: 55400 for the first, 69500 for the second.

Compared with “MQCSISYWRQNQVTDNFALFYIIPCFLSILLYYSSFQSYYEQRAWRLILFFYF”, “MQDGEHEQRLNGRKLALEAENYIIISTRLQKPCIGVVQVLLLLIIMRTISASD” is higher in “transcriptional activation domain activity” value: 56700 for the first, 79600 for the second.

First: MQETNGNTTAADQGSRHDVPPPRRPTRSRNGCMTCRRRKVRCDEQRPRCSHCE
Second: MQFDIGPFVFFGLGWLSAIYLLLFPFFFFFFRLFPSLEFWLDLALIFMFRVLH
The “transcriptional activation domain activity” value of the first is lower: 8920 for the first, 46300 for the second.

Compared with “MQFSLLFFFCLLFPPLLLFLCSFFFSFLFLEIFGFVNCLGFRRSHFQRQALLV”, “MQGEETIASKTNKPRQRRAHTRSRTGCSECRNRRVRCDEQKPQCKNCINSQRI” is lower in “transcriptional activation domain activity” value: 54500 for the first, 24100 for the second.

Compared with “MQGGRLVIYLYYFLMEVFNVLFFLFLFRCWSLLPSALGGGLCYLFLVWGLLFC”, “MQGSGKLSGLIFLSCFFSLLFFFFSFLFFYFFLLSNQLLFFCPNLVLDVALFT” is lower in “transcriptional activation domain activity” value: 67000 for the first, 18000 for the second.

Going from “MQGWVHALFSFFFNLIVVALLSCLCFIHLSSSYYNLCPVLYLTTPCLFIRFYI” to “MQIQALAFPSYCQNTLFMPCTSIVCLDFFFLLHIFPLVPRSLDVFFLFLLVHL”, the “transcriptional activation domain activity” value rises from 62000 to 76400.

Compared with “MQIVLYLHCKVCFIYFHCLLLDFRSFLHIQRPQEPWIAYIFPTTACVSPQTRR”, “MQLDGVQLGFVGLTPFFRERHTECPVFILVVGHSCKLLLIMHIILVIHLLDCR” is lower in “transcriptional activation domain activity” value: 55300 for the first, 52900 for the second.

Going from “MQMIFFLSLTFLILLFFFFFFFSSFPFPFTIITFYISNPLFYFVTLLVSITYF” to “MQMKMSESMSILILMLIMLELGWDVVDPCFFFTPFTPFPILPSFLPSFFFLFL”, the “transcriptional activation domain activity” value rises from 19100 to 54500.

Compared with “MQNKIVQALNWVCVDLNPPLTSFYFSPFFSFFPTLSSCFNTPLFFFLFSSFFF”, “MQQLFTFGSLFFPSFHPFFFFFFFFCHPSFLFFFLPSFLPFFLFFFLPSFLPF” is lower in “transcriptional activation domain activity” value: 61800 for the first, 58000 for the second.

First: MQSGHLFRLFGIAKTVLFFFSSVSCSLLHFLFSSFPFPIFPFVLSICYVFHFF
Second: MQSKAFSFLLSHISLIGFFFTFYEVLLLQFWFLFSLIFIPSYLLMLIVHLFLL
The “transcriptional activation domain activity” value of the first is lower: 46600 for the first, 49000 for the second.

Going from “MQTKVFVFPLFLHYLYCVIFHLLWILFGIAFIFSLVSIIIYLLIVFAHLFHFV” to “MQTSLLPLFSFLSFLFLLVFLLLLSLYLAFSHVAFSFLSLFFCYISFFLFYSF”, the “transcriptional activation domain activity” value falls from 66700 to 26200.

Compared with “MQVISYIFFCHVKYLFFVYSLHVVSNTNLSSYMLFNWLYLILLRLFVYIIYFI”, “MQVSNLLLLVLNLCCVVFLLINLDLHSCFFKLILFIFTSCLFNHPLPFQFIFT” is lower in “transcriptional activation domain activity” value: 71300 for the first, 51700 for the second.

Going from “MQWAGLMFFRCSICLLAFSVILMFGLVWYFFALCVVNRLSTICFVFWMLLSFL” to “MQYVANATPVTCDYDGFDGSGMLVIPNIAIYLSATSGLACIIKCFEILWWYMA”, the “transcriptional activation domain activity” value rises from 42700 to 65000.

Going from “MRAAMDICVLIKMPCPLLKHTPFFTCAVTMAAVVYLSYWSFIATETGDDVIRE” to “MRAAPKYITFFLCYGSWFTSMTRGLSCPCWVYFIGHVSIVVVVVFFTFVYIHG”, the “transcriptional activation domain activity” value falls from 46700 to 38800.

First: MRAKNLTWTTLIYFSTVLWFVGDLVTNNHVRLVGVWSECKLWILWFRVFFVYV
Second: MRAVDIPSLAFNAVGVSNHGIQQMPVAEFATVMKSLVTILLKSMPLDKEKRYQ
The “transcriptional activation domain activity” value of the first is higher: 84300 for the first, 38900 for the second.

Going from “MRCLRSVLGVFFLSYSLYILHCIFCLISYPLAISFMNLSCLGWFHGFWGFIYF” to “MRCPFHLLHTTSGLVYTFYLLFWVLVDTLMFYFFFPSCMSLGSVGHLLFISCC”, the “transcriptional activation domain activity” value rises from 36000 to 67600.

In the case of “MRDGKQGMREKKRKEEGESKSEKKNGKGGRMGKRGGKGKGRKREEQRRVGIEK”, the “transcriptional activation domain activity” value is reported as 28100.
